For this assay, the system named is pancreatic acinar cells. In words: Effect of growth factors on insulin-positive cell induction in main culture of pancreatic acinar cells. It counts as cell-based, mouse. The conditions noted are these: day 7 of culture; EGF 20 ng/ml, HGF, FGF7 and FGF10 10 ng/ml, GLP-1 30 ng/ml; rank among growth factors (FIG. 8B). As for the experimental part:
Eight-week old male mice (C57B1/6Cr Slc)(Japan SLC, Inc.: Hamamatsu, Japan) were anesthetized with 50 mg/kg of Nembtal (Dainippon Pharma Co., Ltd.: Osaka, Japan) and subjected to laparotomy. The choledoch duct was ligated near the position where it opens to the duodenum. Using a 27G winged needle (Terumo Corporation: Tokyo, Japan), 2-3 ml of Hank's buffer containing 0.05% collagenase P (Roche: Basel, Switzerland) and 10% fetal bovine serum was infused from the liver side. The pancreas, now swollen, was extracted and digested in 5 ml of Hank's buffer per pancreas for 18 minutes at 37° C. The digested pancreas then was made to pass through a 14G indwelling needle in both directions twice to disperse the pancreatic cells, which washed well with Hank's buffer containing 0.1% bovine serum albumin (Sigma: Saint Louis, Mo., USA). The pancreatic cells thus obtained were suspended in a mixed solution (solution A) consisting of 8.3% Ficoll 400 (Amersham Bioscience: Uppsala, Sweden) and 16.7% Conray 400 (Daiichi Pharmaceutical, Tokyo, Japan), and after a 87.5%-diluted solution of solution A and then a 50%-diluted solution of solution A were placed on it in the order, centrifuged (2,000 rpm, 10 min). […]

B1: fibroblast growth factor 10 (protein, UniProt O15520 38-208, looked up)
Fibroblast growth factor 10: QALGQDMVSPEATNSSSSSFSSPSSAGRHVRSYNHLQGDVRWRKLFSFTKYFLKIEKNGKVSGTKKENCPYSILEITSVEIGVVAVKAINSNYYLAMNKKGKLYGSKEFNNDCKLKERIEENGYNTYASFNWQHNGRQMYVALNGKGAPRRGQKTRRKNTSAHFLPMVVHS
notes: fibroblast growth factor 10 (R&D Systems), growth factor added to the culture medium
As for B1, the “proportion of insulin-positive cells” value is “this was followed by FGF10 and HGF”.

These data come from patent US20070231897A1, “Induction of Insulin Secreting Cell” (KYOTO UNIVERSITY, priority 2004, published 2007).
